The record followed here is US20030215854, “Detection of DNA-binding proteins” (published 2003).

Series [1] deals with T1, NF-kB p50 (UniProt P19838 P19838:1-433). Put plainly: bead capture with anti-p50 antibody, Luminex; dose dependent; 10 mM Tris pH 7.5, 50 mM NaCl, 2 mM KCl, 2 mM MgCl2, poly dI-dC, room temperature. As to conditions: tags: Promega E3770; chain copies: 2; duplex with single-stranded 3' tag. As to the method: P04 Kbfor and KBrev were annealed by first diluting 100 uM oligonucleotide stocks into annealing buffer (40 mM Tris pH 7.5, 100 mM NaCl, and 1 mM EDTA), to give a ratio of 20 nM P04 Kbfor: 1 uM KBrev. 100 ul of the oligonucleotide mix was then heated to 95° C. for 1 minute, and cooled linearly to room temperature over a period of 45 minutes. 1 ul of the annealed mixture containing detection duplexes displaying a single stranded tag sequence was added to 19 ul of transcription factor binding buffer (10 mM tris pH 7.5, 50 mM NaCl, 2 mM KCl, 2 mM MgCl2) containing 250 ng poly dI-dC, and 0.5% bovine serum albumin (fraction V) and incubated with varying amounts of NF-kB P50 protein for 15 minutes at room temperature. 1800 beads suspended in 25 ul of transcription factor binding buffer containing 0.35% BSA was added to appropriate reactions and incubated 30 minutes at room temperature. Following the hybridization of DNA binding protein-detection duplex complexes to bead surfaces, 25 ul of transcription factor binding buffer containing (0.1 ug) of NF-kB P50 specific primary antibody (Santa Cruz Biotechnolgy Cat #SC-114) was added to the detection duplex-sample-bead mix and incubated for 20 minutes at room temperature in the dark while shaking. […] 25 ul of each assay were read using the Luminex 100 instrumentation.

For series [2], the target named is T1, NF-kB p50. Put plainly: protection from lambda exonuclease, signal approx 3600 fluorescent units with p50; poly dI-dC. As to conditions: tags: Promega E3770; chain copies: 2; label: 3' biotin on KBrev; duplex with single-stranded 3' tag.

T1 sequence (P19838 1-433, one chain of several): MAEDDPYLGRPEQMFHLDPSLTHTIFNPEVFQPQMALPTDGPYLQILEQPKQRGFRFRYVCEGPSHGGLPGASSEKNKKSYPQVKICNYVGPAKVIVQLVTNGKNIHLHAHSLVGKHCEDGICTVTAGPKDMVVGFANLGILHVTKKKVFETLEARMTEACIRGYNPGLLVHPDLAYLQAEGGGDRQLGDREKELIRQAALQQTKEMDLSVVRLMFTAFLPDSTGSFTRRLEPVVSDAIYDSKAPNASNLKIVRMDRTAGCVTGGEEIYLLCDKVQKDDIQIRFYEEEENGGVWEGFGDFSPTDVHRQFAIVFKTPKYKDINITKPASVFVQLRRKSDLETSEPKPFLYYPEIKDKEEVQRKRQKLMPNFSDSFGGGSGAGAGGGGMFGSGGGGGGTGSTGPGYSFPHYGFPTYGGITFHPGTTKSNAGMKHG

B1: PO4 Kbfor/KBrev (dsDNA)
DNA 1: AGTTGAGGGGATCCCCAGGAGCGGCTTATCGGTCTATTCAACTCCCCTAGGGG
DNA 2: TCCTGGGGATCCCCTCAACT
modifications: 5' phosphate on Kbfor
For the molecule B1, in the series with NF-kB p50 [1], the binding result is “binds”.

B2: PO4 Kbfor/biotinKBrev (dsDNA)
DNA 1: AGTTGAGGGGATCCCCAGGAGCGGCTTATCGGTCTATTCAACTCCCCTAGGGG
DNA 2: TCCTGGGGATCCCCTCAACT
modifications: 5' phosphate on Kbfor
With B2, the binding result with NF-kB p50 [2] is listed as “binds”.
